Data as given in US20220193132A1 (NATIONAL RESEARCH COUNCIL OF CANADA, published 2022).

Legend:
[1] = target: T1, wild type human EGFR, full length, overexpressed on U87MG cells (human, UniProt P00533 25-1210); test: flow cytometry dose-response, U87MG-EGFRwt cells
T1 construct: also called U87MG-EGFR wt; U87 WT
Method: Prior to analysis, cells were plated such that they were not more than 80% confluent on the day of analysis. Unless otherwise stated, all media are kept are 4° C. and all incubations are performed on wet ice. Cells were washed in PBS, harvested by the addition of cell dissociation buffer (Sigma), centrifuged and resuspended in complete medium at a cell density of 2×10⁶ cells/mL. Fifty μL/well of cells were distributed in a polypropylene v-bottom 96 well plate and serial 1/3 dilutions of purified mAbs starting at 100 nM were added and incubated for 2 hours. […] Cells were washed and re-suspended in medium containing Propidium iodide to exclude dead cells from analysis. Samples were filtered through a 60 μm nylon mesh filter plate (Millipore, Ireland) to remove cell aggregates. Flow cytometry analyses were performed on 2,000 viable single-cells events gated on forward scattering, side scattering parameters and propidium iodide dye exclusion using a BD-LSRFortessa flow cytometer (Becton-Dickinson Biosciences, CA, USA) and a standard filter set using BD FACSDiva™ acquisition software, according to manufacturer's instructions.
Specific detection of antibody binding was calculated as the mean fluorescent intensity of binding to each primary antibody after background level subtraction of the mean fluorescent intensity of binding of mouse IgG control. The data were analyzed with GraphPad Prism v 6.0 software using one-site specific binding with Hill slope non-linear regression curve fit model to determine Bmax (maximum specific binding) and Kdₐₚₚ (concentration needed to achieve a half-maximum binding at equilibrium) for each mAb tested.

[2] = target: T2, recombinant human wild type EGFR protein (extracellular domain), denatured (human, UniProt P00533 25-645); test: ELISA Exp 1, mAb supernatant
T2 construct: Same protein as m23 after 95 C for 5 min in PBS with 40 mM DTT (denatured, reduced); also called wt EGFR Denatured
Method: (§1) Pre- and post-immune sera titers of animals were assessed by ELISA on recombinant EGFRvIII protein. Unless otherwise stated, all incubations were performed at room temperature. […] Microplates were washed three times in PBS and blocked for 30 min with PBS containing 1% bovine serum albumin (BSA, Sigma Cat #A7030). Blocking buffer was removed and 25 μl of serial dilutions of sera samples were added. […] After a 1-h incubation, microplates were washed 4 times and 25 μl of p-nitrophenyl phosphate (pNPP) substrate (Sigma-Aldrich Canada Co., Oakville, ON) at 1 mg/ml in carbonate buffer at pH 9.6 was added and further incubated for 30 min.
(§2) Antigens at 1-2 mg/ml were incubated at 95° C. for 5 min in PBS containing DTT at a final concentration of 40 mM. They were then incubated on ice for 5 min and diluted at their final coating concentration for ELISA purpose.
(§3) ELISA was performed as described above (serum titer determination) using 25 μl of mAb supernatant (Exp 1) or purified mAb at 1 μg/ml (Exp 2).

[3] = target: T3, recombinant human EGFRvIII protein (extracellular domain), native (human, UniProt P00533 298-623); test: ELISA Exp 1, mAb supernatant
T3 construct: also called hEGFRvIII
Method: as §1, §2, §3

[4] = target: T4, recombinant human EGFRvIII protein (extracellular domain), denatured (human, UniProt P00533 298-623); test: ELISA Exp 1, mAb supernatant
T4 construct: Same protein as m21 after 95 C for 5 min in PBS with 40 mM DTT (denatured, reduced); also called EGFRvIII Denatured
Method: as §1, §2, §3

[5] = target: T5, recombinant human wild type EGFR protein (extracellular domain), native (human, UniProt P00533 25-645); test: ELISA Exp 1, mAb supernatant
T5 construct: also called wt EGFR; EGFR WT
Method: as §1, §2, §3

[6] = target: T6, EGFRvIII, full length, overexpressed on glioblastoma cells (human, UniProt P00533 298-623); test: flow cytometry dose-response on U87MG-EGFRvIII cells, apparent Kd
T6 construct: Cells overexpress full length EGFRvIII (deletion of exons 2-7 of EGFR); Cell line (U87MG or DKMG) is named under assay; also called U87MG-EGFRvIII; U87vIII

[7] = target: T2, recombinant human wild type EGFR …; test: ELISA Exp 2, purified mAb 1 ug/ml;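 note: ELISA of purified mAb binding to plate-coated antigen, native or heat/DTT-denatured, with pNPP substrate developed for 30 min and incubations at room temperature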
Method: as §1, §2, §3

[8] = target: T3, recombinant human EGFRvIII protein …; test: ELISA Exp 2, purified mAb 1 ug/ml;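 note: ELISA of purified mAb binding to plate-coated antigen, native or heat/DTT-denatured, with pNPP substrate developed for 30 min and incubations at room temperature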
Method: as §1, §2, §3

[9] = target: T4, recombinant human EGFRvIII protein …; test: ELISA Exp 2, purified mAb 1 ug/ml;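 note: ELISA of purified mAb binding to plate-coated antigen, native or heat/DTT-denatured, with pNPP substrate developed for 30 min and incubations at room temperature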
Method: as §1, §2, §3

[10] = target: T5, recombinant human wild type EGFR …; test: ELISA Exp 2, purified mAb 1 ug/ml;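 note: ELISA of purified mAb binding to plate-coated antigen, native or heat/DTT-denatured, with pNPP substrate developed for 30 min and incubations at room temperature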
Method: as §1, §2, §3

[11] = target: T1, wild type human EGFR, full length, …; test: cell-based or functional assay
[12] = target: T6, EGFRvIII, full length, overexpressed on …; test: cell-based or functional assay
[13] = target: T7, EGFRvIII fragment amino acid residues 1 to 18, displayed on yeast (human); test: yeast surface display, flow cytometry
T7 construct: also called aa 1-18
T7 peptide: LEEKKGNYVVTDHGSCVR
From the text: (§4) Assessment of the binding of anti-EGFRvIII mAbs to the fusion proteins expressed on yeast cell surface was done by flow cytometry analysis. Briefly, yeast cells were labeled with both the anti-hEGFRvIII mAb and chicken anti-Myc antibody, the latter being used to monitor the level of expression of the fusion protein. Following a wash step, binding of the primary antibodies is probed by a two-color indirect fluorescence labeling using secondary antibodies specific for mouse and chicken antibodies, respectively.

[14] = target: T1, wild type human EGFR, full length, …; test: cell-based or functional assay; remark: listed apart in the source
[15] = target: T6, EGFRvIII, full length, overexpressed on …; test: cell-based or functional assay; remark: listed apart in the source
[16] = target: T8, EGFRvIII fragment amino acid residues 3 to 18, displayed on yeast (human); test: yeast surface display, flow cytometry
T8 construct: also called aa 3-18
T8 peptide: EKKGNYVVTDHGSCVR
From the text: as §4

[17] = target: T6, EGFRvIII, full length, overexpressed on …; test: cell-based or functional assay; remark: listed apart in the source

Binder	binding result [1]	ELISA absorbance 405 nm [2] [A405]	ELISA absorbance 405 nm [3] [A405]	ELISA absorbance 405 nm [4] [A405]	ELISA absorbance 405 nm [5] [A405]	Kd [6] [nM]	ELISA absorbance 405 nm [7] [A405]	ELISA absorbance 405 nm [8] [A405]	ELISA absorbance 405 nm [9] [A405]	ELISA absorbance 405 nm [10] [A405]	% internalization (pHrodo surrogate assay, vs 225 mAb) [11] [%]	% internalization (pHrodo surrogate assay, vs 225 mAb) [12] [%]	binding result [13]	% survival (DM1 secondary-conjugate ADC surrogate assay, vs mouse IgG) [14] [%]	% survival (DM1 secondary-conjugate ADC surrogate assay, vs mouse IgG) [15] [%]	binding result [16]	IC50 of growth inhibition, DKMG EGFRvIII cells [17] [nM]	IC50 of growth inhibition, U87MG EGFRvIII cells [17] [nM]
F266-11C8 (antibody, V domains shown, Mouse hybridoma mAb; also called 11H5 (11C8)) VH: QIQLVQSGPELKKPGETVKISCKASGYTFTTAGMQWVQKMPGKGFKWIGWINTHSGDPKYAEDFKGRFAFSLETYASTAYLQISNLKNEDTASYFCARTHIYDGYNYAMDYWGQGTSVTVSS VL: DVVMTQTPLSLPVSLGDQASISCRSSQSLVYSNGNTYLHWYLQKPGQSPKLLIYKVSNRFSGVPDRFSGSGSGTDFTLKISRVEAEDLGVYFCSQSTHVPFTFGSGTKLEIK	no binding (tested: 100 nM highest concentration)	0.009	1.56	2.1	0.011	3.5	-0.001	1.72	1.71	0	< 2	136	binds	> 98	55			
F266-11H3 (antibody, V domains shown, Mouse hybridoma mAb) VH: QIQLVQSGPELKKPGETVKISCKASGYTFTTAGMQWVQKMPGKGFKWIGWINTHSGDPKYAEDFKGRFAFSLETYASTAYLQISNLKNEDTATYFCARTHIYDGYNYAMDYWGQGTSVTVSS VL: DVVMTQTPLSLPVSLGDQASISCRSSQSLVYSNGNTYLHWYLQKPGQSPKLLIYKVSNRFSGVPDRFSGSGSGTDFTLKISRVEAEDLGVYFCSQSTHVPFTFGSGTKLEIK	no binding (tested: 100 nM highest concentration)	0.041	1.66	2.1	0.053	2.5	0	1.78	1.79	0.001	< 2	131	binds	> 98	62			
F266-11B1 (antibody, V domains shown, Mouse hybridoma mAb) VH: QIQLVQSGPELKKPGETVKISCKASGYTFTTAGMQWVKKMPGKGFKWIGWINTHSGDPKYAEDFKGRFAFSLETYASTAYLQISNLKNEDTASYFCARTHIYDGYNYAMDYWGQGTSVTVSS VL: DVVMTQTPLSLPVSLGDQASISCRSSQSLVYSNGNTYLHWYLQKPGQSPKLLIYKVSNRFSGVPDRFSGSGSGTDFTLKISRVEAEDLGVYFCSQSTHVPFTFGSGTKLEIK	no binding (tested: 100 nM highest concentration)	0.032	1.67	2.2	0.034	2.2	0.004	1.72	1.77	0.002	< 2	131	binds	> 98	62			
F263-1A8 (antibody, V domains shown, Mouse hybridoma mAb) VH: EVQLQQSGAELVRPGALVKLSCKASGFNIKDYYMHWVKQRPEQGLEWIGWIDPENGNTIYDPKFQGKATITADTSSNTAYLQLSSLASEDTAVYYCARGWLLLWGQGTTLTVSS VL: not shown	no binding (tested: 100 nM highest concentration)	0.013	1.67	2.09	0.016	2	0.001	1.79	1.71	0.002	< 2	100		> 98	65	binds		
F260-5G6 (antibody, V domains shown, Mouse hybridoma mAb) VH: EVQLQQSGAELARPGASVKMSCKASGYTFTSYWMHWVKQRPGQGLEWIGAIYPGNSDISYNQKFKGKAKLTAVTSATTAYMELSSLTNEDSAVYYCTLYDYDPDYWGQGTTLTVSS VL: not shown	no binding (tested: 100 nM highest concentration)	0.005	1.45	1.94	0	4.2	0	1.74	1.74	0.001	< 2	102		91	55	binds		
hFc-5G6-MMAE (antibody, human IgG1, kappa, V domains shown, MC-vc-PAB-MMAE on reduced interchain cysteines) VH: EVQLQQSGAELARPGASVKMSCKASGYTFTSYWMHWVKQRPGQGLEWIGAIYPGNSDISYNQKFKGKAKLTAVTSATTAYMELSSLTNEDSAVYYCTLYDYDPDYWGQGTTLTVSS VL: not shown																	0.3	0.3
hFc-13.1.2-MMAE (antibody, human IgG1, kappa, V domains shown, MC-vc-PAB-MMAE on reduced interchain cysteines) VH: QVQLVESGGGVVQPGRSLRLSCAASGFTFSSYGMHWVRQAPGKGLEWVAVIWYDGSNKYYVDSVKGRFTISRDNSKNTLYLQMNSLRAEDTAVYYCARDGWQQLAPFDYWGQGTLVTVSS VL: not shown																	2.5	1.9
hFc-4E11-MMAE (antibody, human IgG1, kappa, V domains shown, MC-vc-PAB-MMAE on reduced interchain cysteines) VH: DVQLQESGPGLVKPSQSLSLTCTVTGYSITSDYAWNWIRQFPGNKLEWMGYIGYNGRTSYNPSLKSRISITRDTSKNQFFLQLNYVTTEDTATFYCARLGRGFAYWGQGTLVTVSA VL: DILMTQSPSSMSVSLGDTVSITCHASQGINSNIGWLLQKPGKSFKGLIYHGTNLEDGVPSRFSGSGSGTDYSLTISSLESEDFADYYCVQYAQFPYTFGGGTKLEIKR																		0.2
